Reference: article doi:10.64898/2025.12.16.694598

Assays:
Assay in all cases: BLI
[1] = target: Recombinant histidine-tagged Ewing Sarcoma Breakpoint Region 1 (EWSR1) protein (UniProt Q01844)
EWSR1 = EWSR1 (UniProt Q01844 1-656)
CHIKV nsP2 = CHIKV nsP2 (Chikungunya virus; strain of the nsP2 …, UniProt Q8JUX6 536-1333)
Sequence of CHIKV nsP2 (Q8JUX6 536-1333): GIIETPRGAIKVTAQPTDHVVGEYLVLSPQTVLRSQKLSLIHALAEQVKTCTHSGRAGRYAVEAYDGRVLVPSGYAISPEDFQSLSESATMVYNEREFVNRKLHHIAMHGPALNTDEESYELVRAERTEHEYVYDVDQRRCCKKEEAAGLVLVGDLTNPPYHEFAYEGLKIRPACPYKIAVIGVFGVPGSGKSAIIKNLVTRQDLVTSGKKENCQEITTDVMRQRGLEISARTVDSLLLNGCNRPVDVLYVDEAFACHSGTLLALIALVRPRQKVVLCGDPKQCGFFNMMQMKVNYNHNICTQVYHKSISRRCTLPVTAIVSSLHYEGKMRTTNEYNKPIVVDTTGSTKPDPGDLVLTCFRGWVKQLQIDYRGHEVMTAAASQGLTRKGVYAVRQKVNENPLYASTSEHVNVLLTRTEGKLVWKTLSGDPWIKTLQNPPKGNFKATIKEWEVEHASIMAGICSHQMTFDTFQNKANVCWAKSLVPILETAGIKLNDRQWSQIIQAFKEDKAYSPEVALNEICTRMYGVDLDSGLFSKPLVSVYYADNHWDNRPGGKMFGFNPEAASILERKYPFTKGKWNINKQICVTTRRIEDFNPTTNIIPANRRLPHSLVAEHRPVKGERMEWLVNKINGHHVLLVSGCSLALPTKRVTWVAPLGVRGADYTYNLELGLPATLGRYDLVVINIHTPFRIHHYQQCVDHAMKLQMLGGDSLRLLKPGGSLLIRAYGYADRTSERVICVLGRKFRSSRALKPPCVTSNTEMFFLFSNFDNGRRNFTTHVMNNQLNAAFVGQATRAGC

Sequence of Recombinant histidine-tagged Ewing Sarcoma Breakpoint Region 1 (EWSR1) protein (Q01844 whole entry): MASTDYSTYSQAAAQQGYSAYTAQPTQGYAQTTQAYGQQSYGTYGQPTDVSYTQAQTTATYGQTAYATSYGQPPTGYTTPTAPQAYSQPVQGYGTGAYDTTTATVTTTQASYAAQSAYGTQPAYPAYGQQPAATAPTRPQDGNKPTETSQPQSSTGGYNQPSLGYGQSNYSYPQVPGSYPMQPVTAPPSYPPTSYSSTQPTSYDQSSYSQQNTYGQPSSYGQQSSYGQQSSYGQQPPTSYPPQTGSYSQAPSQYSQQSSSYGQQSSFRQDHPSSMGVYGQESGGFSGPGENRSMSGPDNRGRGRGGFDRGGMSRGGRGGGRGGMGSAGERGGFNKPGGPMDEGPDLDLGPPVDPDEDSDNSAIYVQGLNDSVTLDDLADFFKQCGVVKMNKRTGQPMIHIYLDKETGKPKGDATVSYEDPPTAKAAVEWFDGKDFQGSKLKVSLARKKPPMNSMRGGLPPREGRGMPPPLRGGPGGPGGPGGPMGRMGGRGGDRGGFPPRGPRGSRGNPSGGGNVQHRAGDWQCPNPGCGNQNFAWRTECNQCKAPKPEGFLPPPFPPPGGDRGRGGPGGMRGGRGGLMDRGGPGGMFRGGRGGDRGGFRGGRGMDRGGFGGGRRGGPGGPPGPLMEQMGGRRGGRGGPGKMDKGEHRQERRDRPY
Sequence of EWSR1 (Q01844 whole entry): as above
Sequence of Chikungunya virus non-structural protein 2 (CHIKV nsP2), full-length recombinant (Q8JUX6 536-1333): as the sequence (Q8JUX6 536-1333) above

Row | Molecule | Kd [1] | Kd (EWSR1) | Kd (CHIKV nsP2)
1 | Chikungunya virus non-structural protein 2 (CHIKV nsP2), full-length recombinant (from UniProt Q8JUX6) (enzyme) | 716 nM | – | –
2 | CCGAACCCACAGGGACGUAGGAGAUGUUAUUUUGUUUUUAAUAUUUC (ssRNA) [3NCR48] | – | 91.4 ± 0.37 nM | 92.9 ± 1.6 nM
